# Test results taken from patent US6649742.
# T1: human CD5 cell differentiation marker (human, UniProt P06127 25-495)
# T1 sequence: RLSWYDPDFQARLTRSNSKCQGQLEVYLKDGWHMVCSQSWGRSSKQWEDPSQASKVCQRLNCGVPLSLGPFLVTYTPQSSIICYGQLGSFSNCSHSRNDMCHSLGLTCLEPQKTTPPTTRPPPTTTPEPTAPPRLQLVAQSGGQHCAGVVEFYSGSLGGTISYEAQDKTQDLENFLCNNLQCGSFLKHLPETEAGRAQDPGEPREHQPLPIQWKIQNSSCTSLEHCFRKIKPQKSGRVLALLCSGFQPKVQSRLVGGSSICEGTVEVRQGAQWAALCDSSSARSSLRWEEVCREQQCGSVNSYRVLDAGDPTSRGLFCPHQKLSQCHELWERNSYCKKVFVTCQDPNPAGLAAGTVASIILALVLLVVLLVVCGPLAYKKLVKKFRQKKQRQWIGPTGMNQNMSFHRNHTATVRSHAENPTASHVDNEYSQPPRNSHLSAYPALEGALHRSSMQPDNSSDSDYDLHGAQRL
# B1: he3Fab-rGelA50(C44) (other)
# light: DIQMTQSPSSLSASVGDRVTITCRASQDINSYLSWFQQKPGKAPKTLIYRANRLESGVPSRFSGSGSGTDYTLTISSLQYEDFGIYYCQQYDESPWTFGGGTKLEIK
# heavy: EIQLVQSGGGLVKPGGSVRISCAASGYTFTNYGMNWVRQAPGKGLEWMGWINTHTGEPTYADSFKGRFTFSLDDSKNTAYLQINSLRAEDTAVYFCTRRGYDWYFDVWGQGTTVTVSS
# chain: GLDTVSFSTKGATYITYVNFLNELRVKLKPEGNSHGIPLLRKKCDDPGKAFVLVALSNDNGQLAEIAIDVTSVYVVGYQVRNRSYFFKDAPDAAYEGLFKNTIKTRLHFGGSYPSLEGEKAYRETTDLGIEPLRIGIKKLDENAIDNYKPTEIASSLLVVIQMVSEAARFTFIENQIRNNFQQRIRPANNTISLENKWGKLSFQIRTSGANGMFSEAVELERANGKKYYVTAVDQVKPKIALLKFVDKDPK
# modifications: Cys 44 disulfide-linked to the M2IT linker on the Fab; lysine residues of the Fab derivatized with 5-methyl-2-iminothiolane (M2IT), 1 M2IT per Fab
# Target: T1, human CD5 cell differentiation marker
# Assay: cell-based or functional assay
binder,measurement,value
B1,"IC50 (pMT), CEM Cells; whole cell cytotoxicity (inhibition of protein synthesis)",173 pMT
same,"IC50 (pMT), HSB2 Cells; whole cell cytotoxicity (inhibition of protein synthesis)",165 pMT
